Substitutions are numbered along the chain they refer to.
Legend:
[1] = molecular target: T1, recombinant galectin-10 crystals (Charcot-Leyden crystals) (UniProt Q05315 2-142, limits assumed); assay: cell-based or functional assay
T1 sequence (looked up): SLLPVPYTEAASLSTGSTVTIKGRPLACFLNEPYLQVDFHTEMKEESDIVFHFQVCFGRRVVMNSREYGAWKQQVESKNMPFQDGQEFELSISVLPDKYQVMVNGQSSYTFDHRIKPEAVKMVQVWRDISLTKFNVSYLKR

human Gal10-His [2] = molecular target: T2, human Gal10-His (human, UniProt Q05315 2-142, limits assumed); assay: SPR Biacore 3000; human Gal10-His captured on anti-His CM5 chip
T2 construct: also called human galectin-10; not shown: His tag
T2 sequence: T1 sequence (looked up)
Experimental: The binding properties of the selected Fab clones to human Gal10 were analyzed via a capture method established on Biacore 3000. It was decided to apply two concentrations of the selected Fab clones on human Gal10-His immobilized on a CM5 chip coated with a monoclonal anti-His.

human Gal10-His [3] = molecular target: T2, human Gal10-His; assay: SPR Biacore 3000; human Gal10-His captured on anti-His CM5 chip; Fab at 30 nM
Experimental: (§1) The binding properties of the selected Fab clones to human and cynomolgus Gal10 was analyzed via a capture method established on Biacore 3000. For this purpose, two approaches were used. In the first one, two concentrations of the selected Fab clone were applied on cynomolgus (WGS isoform) Gal10-His capture on a CM5 chip coated with a monoclonal anti-His. In the second approach, a serial dilution was applied on human or cynomolgus (WGS isoform) Gal10 His on the same set up.

[4] = molecular target: T3, cynomolgus Gal10-His (WGS isoform) (cynomolgus); assay: SPR Biacore 3000; cynomolgus Gal10-His (WGS isoform) captured on anti-His CM5 chip; Fab at 30 nM
T3 construct: also called cyno Gal10; cynomolgus antigen
Experimental: as §1

[5] = molecular target: T4, galectin-10 (Gal10), species and tag not stated for the assay (UniProt Q05315 2-142, limits assumed); assay: SPR (Biacore 3000), binding activity of the sample stored 4 weeks at +5 C and nebulized, relative to reference sample T0; criterion <20% loss
T4 construct: human is likely, since the human-specific 1D11 is in the panel
T4 sequence (looked up): T1 sequence (looked up)
Experimental: The functional active concentration of the nebulized solutions was assessed by SPR on a Biacore 3000 instrument. All samples were evaluated with methods meeting the standard qualification criteria. Aliquots were tested at predefined test concentrations against titration curves from reference samples (TO) and in the presence of quality control (QC) samples.

B1: g24F02_N53A human Fab (Fab, V domains shown)
VH: EVQLLESGGGLVQPGGSLRLSCAASGFTFSSYAMSWVRQAPGKGLEWVSAINAGGGSTSYADSVKGRFTISRDNSKNTLYLQMNSLRAEDTAVYYCAKGLRVGVLGFDYWGQGTLVTVSS
VL: SYELTQPLSVSVALGQTARITCDGNNIGSKSAQWYQQKPGQAPVLVIYADEYRPEGIPERFSGSNSGNTATLTISRAQAGDEADYYCQVWDGSAAVFGGGTQLTVL
notes: Human Fab backbone
[1]
  EC50, Gal10 crystal dissolution, stressed material (T4W post-nebulization, after 2 hour incubation), assay 2: 159 µg/mL
  EC50, Gal10 crystal dissolution, unstressed material (T0, after 2 hour incubation), assay 2: 191 µg/mL
  relative activity in recombinant Gal10 crystal dissolution, T4W post-nebulization sample relative to unstressed material T0 (at 2 hour incubation): 120%
Human Gal10-His [2]
  fold better off rate than g7B07: 3.5 fold
Human Gal10-His [3]
  Amplitude R0 (RU) 30 nM: 647 RU
[4]
  Amplitude R0 (RU) 30 nM: 544 RU
[5]
  relative activity by SPR for T4W post-nebulization sample relative to reference sample T0: 111%

B2: g20H09 human Fab (Fab, V domains shown)
VH: EVQLLESGGGLVQPGGSLRLSCAASGFTFRSYDMSWVRQAPGKGLEWVSAIKWHRITYYADSVKGRFTISRDNSKNTLYLQMNSLRAEDTAVYYCATTHGIGTLGFGSWGQGTLVTVSS
VL: B1 VL
notes: Germlined clone in human Fab backbone; also called clone 20H09
[1]
  EC50, Gal10 crystal dissolution, stressed material (T4W post-nebulization, after 2 hour incubation), assay 1: 395 µg/mL
  EC50, Gal10 crystal dissolution, unstressed material (T0, after 2 hour incubation), assay 1: 260 µg/mL
  relative activity in recombinant Gal10 crystal dissolution, T4W post-nebulization sample relative to unstressed material T0 (at 2 hour incubation): 66%
[5]
  relative activity by SPR for T4W post-nebulization sample relative to reference sample T0: 97%

B3: g23H09 human Fab (Fab, V domains shown)
VH: EVQLLESGGGLVQPGGSLRLSCAASGFTFRSYDMSWVRQAPGKGLEWVSAIAQFQHWTYYADSVKGRFTISRDNSKNTLYLQMNSLRAEDTAVYYCATTHGIGTLGFGSWGQGTLVTVSS
VL: B1 VL
notes: Germlined clone in human Fab backbone; also called clone 23H09
[1]
  EC50, Gal10 crystal dissolution, stressed material (T4W post-nebulization, after 2 hour incubation), assay 1: 297 µg/mL
  EC50, Gal10 crystal dissolution, stressed material (T4W post-nebulization, after 2 hour incubation), assay 2: 209 µg/mL
  EC50, Gal10 crystal dissolution, unstressed material (T0, after 2 hour incubation), assay 1: 252 µg/mL
  EC50, Gal10 crystal dissolution, unstressed material (T0, after 2 hour incubation), assay 2: 190 µg/mL
  relative activity in recombinant Gal10 crystal dissolution, T4W post-nebulization sample relative to unstressed material T0 (at 2 hour incubation), assay 1: 85%
  relative activity in recombinant Gal10 crystal dissolution, T4W post-nebulization sample relative to unstressed material T0 (at 2 hour incubation), assay 2: 91%
Human Gal10-His [2]
  fold better off rate than g7B07: 1.9 fold
Human Gal10-His [3]
  Amplitude R0 (RU) 30 nM: 722 RU
[4]
  Amplitude R0 (RU) 30 nM: 589 RU
[5]
  relative activity by SPR for T4W post-nebulization sample relative to reference sample T0: 119%

B4: g24F02 human Fab (Fab, V domains shown)
VH: B1 VH with A53N
VL: B1 VL
notes: Germlined clone in human Fab backbone
Human Gal10-His [3]
  Amplitude R0 (RU) 30 nM: 644 RU
[4]
  Amplitude R0 (RU) 30 nM: 566 RU
